Patent publication US20250144178A1 (KANAPH THERAPEUTICS, published 2025)

T1: recombinant mouse FAP (mouse, UniProt P97321 26-761)
T1 construct: Soluble analyte in SPR
T1 sequence (looked up): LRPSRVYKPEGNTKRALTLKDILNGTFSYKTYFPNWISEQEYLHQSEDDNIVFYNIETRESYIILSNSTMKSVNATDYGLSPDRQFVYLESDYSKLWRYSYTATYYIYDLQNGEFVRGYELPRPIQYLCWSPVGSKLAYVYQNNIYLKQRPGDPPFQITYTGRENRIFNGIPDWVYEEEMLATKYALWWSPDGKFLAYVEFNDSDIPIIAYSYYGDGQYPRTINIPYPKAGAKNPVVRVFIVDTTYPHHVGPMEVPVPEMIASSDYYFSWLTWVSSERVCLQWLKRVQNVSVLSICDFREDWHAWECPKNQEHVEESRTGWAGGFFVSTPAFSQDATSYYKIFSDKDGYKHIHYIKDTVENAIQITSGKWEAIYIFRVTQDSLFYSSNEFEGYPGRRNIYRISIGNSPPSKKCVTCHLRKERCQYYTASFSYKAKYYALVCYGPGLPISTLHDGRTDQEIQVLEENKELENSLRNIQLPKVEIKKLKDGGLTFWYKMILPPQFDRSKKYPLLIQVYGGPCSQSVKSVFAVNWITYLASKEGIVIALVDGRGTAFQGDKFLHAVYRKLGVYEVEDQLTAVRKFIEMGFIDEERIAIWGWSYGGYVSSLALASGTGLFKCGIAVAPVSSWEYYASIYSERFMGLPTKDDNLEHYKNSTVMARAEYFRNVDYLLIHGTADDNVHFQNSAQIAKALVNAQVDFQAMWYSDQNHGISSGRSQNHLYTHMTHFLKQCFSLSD

T2: mouse FAP (fibroblast activation protein alpha) overexpressed in B16F10 cells (B16F10-mFAP) (mouse, UniProt P97321 1-761)
T2 construct: whole, on cells; also called mouse FAP-expressing cell line
T2 sequence (looked up): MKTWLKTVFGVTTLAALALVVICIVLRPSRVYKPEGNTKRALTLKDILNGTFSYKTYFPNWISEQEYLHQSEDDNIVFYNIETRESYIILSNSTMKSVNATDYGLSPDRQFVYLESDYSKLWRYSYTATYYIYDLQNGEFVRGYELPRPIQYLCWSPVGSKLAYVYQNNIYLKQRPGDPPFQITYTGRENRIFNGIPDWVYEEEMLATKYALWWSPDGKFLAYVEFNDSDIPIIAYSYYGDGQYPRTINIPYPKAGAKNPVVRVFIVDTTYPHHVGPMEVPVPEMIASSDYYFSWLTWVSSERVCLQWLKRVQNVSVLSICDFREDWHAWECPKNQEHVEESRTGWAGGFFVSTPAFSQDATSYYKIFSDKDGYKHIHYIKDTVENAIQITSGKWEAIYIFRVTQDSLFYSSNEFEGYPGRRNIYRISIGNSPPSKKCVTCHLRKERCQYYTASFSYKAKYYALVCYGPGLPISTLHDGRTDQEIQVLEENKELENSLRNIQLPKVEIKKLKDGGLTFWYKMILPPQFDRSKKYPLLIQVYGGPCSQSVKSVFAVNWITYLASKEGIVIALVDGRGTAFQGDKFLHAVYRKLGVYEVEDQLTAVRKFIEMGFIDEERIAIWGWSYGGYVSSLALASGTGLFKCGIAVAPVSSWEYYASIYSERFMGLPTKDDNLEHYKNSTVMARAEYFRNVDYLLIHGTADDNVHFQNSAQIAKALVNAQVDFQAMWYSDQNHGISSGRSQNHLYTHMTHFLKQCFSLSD


Experiments:
[1] = target: T1, recombinant mouse FAP; experiment: SPR, fusion protein captured by anti-mouse IgG (Fc) on a CM5 chip, mouse FAP as analyte 1.5625-100 nM, 1:1 binding model
[2] = target: T2, mouse FAP (fibroblast activation …); experiment: flow cytometry on B16F10-mFAP cells, detection with anti-mouse IgG2a antibody
Method: (§1) Specifically, the cell line was prepared by suspending in a FACS buffer solution at 1×10⁵ cells/100 μl, and treated with 1 μg of each T1.12m, T1.01m, T1.02m and T1.03m. The cells were washed twice with a FACS buffer solution. The cells were stained with an anti-mouse IgG2a antibody (Biolegend). The negative control was stained only with an anti-mouse IgG2a antibody (Biolegend). The expression rate of the stained cells was measured using BD LSR and analyzed using a FlowJo software.

[3] = target: T2, mouse FAP (fibroblast activation …); experiment: flow cytometry on B16F10-mFAP cells, 1 µg protein per 1x10^5 cells, anti-mouse IgG2a detection
Method: as §1

[4] = target: T3, B16F10; experiment: flow cytometry on parental B16F10 cells, detection with anti-mouse IgG2a antibody
T3 construct: not a protein target; also called parental B16F10 cells, without the transduced mouse FAP gene
Method: as §1

| Kd [1] [nM] | koff [1] [s⁻¹] | kon [1] [M⁻¹ s⁻¹] | percent of cells in the positive gate (mFAP-PE) [2] [%] | percent of cells bound [3] [%] | percent of cells in the positive gate (mFAP-PE) [4] [%] | Binder |
| --- | --- | --- | --- | --- | --- | --- |
| 1.53 | 0.00014 | 91500 | 92.1 | ≥ 99 | 1.37 | T1.02m (anti-mu FAP/mu IL-12 mut1, mu IgG2a DANG) (bispecific antibody, Mouse surrogate, knob-in-hole heterodimer) heavy: QVQLQQSGAELARPGASVNLSCKASGYTFTNNGINWLKQRTGQGLEWIGEIYPRSTNTLYNEKFKGKATLTADRSSNTAYMELRSLTSEDSAVYFCARTLTAPFAFWGQGTLVTVSAAKTTAPSVYPLAPVCGDTTGSSVTLGCLVKGYFPEPVTLTWNSGSLSSGVHTFPAVLQSDLYTLSSSVTVTSSTWPSQSITCNVAHPASSTKVDKKIEPRGPTIKPCPPCKCPAPNLLGGPSVFIFPPKIKDVLMISLSPIVTCVVVAVSEDDPDVQISWFVNNVEVHTAQTQTHREDYGSTLRVVSALPIQHQDWMSGKEFKCKVNNKDLPAPIERTISKPKGSVRAPQVYVLPPPEEEMTKKQVTLWCMVTDFMPEDIYVEWTNNGKTELNYKNTEPVLDSDGSYFMYSKLRVEKKNWVERNSYSCSVVHEGLHNHHTTKSFSRTPGK light: QIVLTQSPAIMSASPGEKVTMTCSASSGVNFMHWYQQKSGTSPKRWIFDTSKLASGVPARFSGSGSGTSYSLTISSMEAEDAATYYCQQWSFNPPTFGGGTKLEIKRADAAPTVSIFPPSSEQLTSGGASVVCFLNNFYPKDINVKWKIDGSERQNGVLNSWTDQDSKDSTYSMSSTLTLTKDEYERHNSYTCEATHKTSTSPIVKSFNRNEC MWELEKDVYVVEVDWTPDAPGETVNLTCDTPEEDDITWTSDQRHGVIGSGKTLTITVKEFLDAGQYTCHKGGETLSHSHLLLHKKENGIWSTEILKNFKNKTFLKCEAPNYSGRFTCSWLVQRNMDLKFNIKSSSSSPDSRAVTCGMASLSAEKVTLDQRDYEKYSVSCQEDVTCPTAEETLPIELALEARQQNKYENYSTSFFIRDIIKPDPPKNLQMKPLKNSQVEVSWEYPDSWSTPHSYFSLKFFVRIQRAKEKMAETEEGCNQKGAFLVEKTSTEVQCKGGNVCVQAQDRYYNSSCSKWACVPCRVRSGGGGSGGGGSGGGGSRVIPVSGPARCLSQSRNLLKTTDDMVKTAREKLKHYSCTAEDIDHEDITRDQTSTLKTCLPLELHKNESCLATRETSSTTRGSCLPPQKTSLMMTLCLGSIYEDLKMYQTEFQAINAALQNHNHQQIILDKGMLVAIDELMQSLNHNGETLRQKPPVGEADPYRVKMKLCILLHAFSTRVVTINRVMGYLSSAGGGGSGGGGSEPRGPTIKPCPPCKCPAPNLLGGPSVFIFPPKIKDVLMISLSPIVTCVVVAVSEDDPDVQISWFVNNVEVHTAQTQTHREDYGSTLRVVSALPIQHQDWMSGKEFKCKVNNKDLPAPIERTISKPKGSVRAPQVYVLPPPEEEMTKKQVTLSCAVTDFMPEDIYVEWTNNGKTELNYKNTEPVLDSDGSYFMVSKLRVEKKNWVERNSYSCSVVHEGLHNHHTTKSFSRTPGK |
|  |  |  | 92.6 | ≥ 99 | 1.97 | T1.12m (anti-mu FAP/null, mu IgG2a DANG) (antibody, One-armed anti-mouse FAP antibody without IL-12; control) heavy: QVQLQQSGAELARPGASVNLSCKASGYTFTNNGINWLKQRTGQGLEWIGEIYPRSTNTLYNEKFKGKATLTADRSSNTAYMELRSLTSEDSAVYFCARTLTAPFAFWGQGTLVTVSAAKTTAPSVYPLAPVCGDTTGSSVTLGCLVKGYFPEPVTLTWNSGSLSSGVHTFPAVLQSDLYTLSSSVTVTSSTWPSQSITCNVAHPASSTKVDKKIEPRGPTIKPCPPCKCPAPNLLGGPSVFIFPPKIKDVLMISLSPIVTCVVVAVSEDDPDVQISWFVNNVEVHTAQTQTHREDYGSTLRVVSALPIQHQDWMSGKEFKCKVNNKDLPAPIERTISKPKGSVRAPQVYVLPPPEEEMTKKQVTLWCMVTDFMPEDIYVEWTNNGKTELNYKNTEPVLDSDGSYFMYSKLRVEKKNWVERNSYSCSVVHEGLHNHHTTKSFSRTPGK light: QIVLTQSPAIMSASPGEKVTMTCSASSGVNFMHWYQQKSGTSPKRWIFDTSKLASGVPARFSGSGSGTSYSLTISSMEAEDAATYYCQQWSFNPPTFGGGTKLEIKRADAAPTVSIFPPSSEQLTSGGASVVCFLNNFYPKDINVKWKIDGSERQNGVLNSWTDQDSKDSTYSMSSTLTLTKDEYERHNSYTCEATHKTSTSPIVKSFNRNEC EPRGPTIKPCPPCKCPAPNLLGGPSVFIFPPKIKDVLMISLSPIVTCVVVAVSEDDPDVQISWFVNNVEVHTAQTQTHREDYGSTLRVVSALPIQHQDWMSGKEFKCKVNNKDLPAPIERTISKPKGSVRAPQVYVLPPPEEEMTKKQVTLSCAVTDFMPEDIYVEWTNNGKTELNYKNTEPVLDSDGSYFMVSKLRVEKKNWVERNSYSCSVVHEGLHNHHTTKSFSRTPGK |
| 1.51 | 6.75e-05 | 44700 | 93.7 | ≥ 99 | 2.41 | T1.01m (anti-mu FAP/mu IL-12, mu IgG2a DANG) (bispecific antibody, Mouse surrogate, knob-in-hole heterodimer) heavy: QVQLQQSGAELARPGASVNLSCKASGYTFTNNGINWLKQRTGQGLEWIGEIYPRSTNTLYNEKFKGKATLTADRSSNTAYMELRSLTSEDSAVYFCARTLTAPFAFWGQGTLVTVSAAKTTAPSVYPLAPVCGDTTGSSVTLGCLVKGYFPEPVTLTWNSGSLSSGVHTFPAVLQSDLYTLSSSVTVTSSTWPSQSITCNVAHPASSTKVDKKIEPRGPTIKPCPPCKCPAPNLLGGPSVFIFPPKIKDVLMISLSPIVTCVVVAVSEDDPDVQISWFVNNVEVHTAQTQTHREDYGSTLRVVSALPIQHQDWMSGKEFKCKVNNKDLPAPIERTISKPKGSVRAPQVYVLPPPEEEMTKKQVTLWCMVTDFMPEDIYVEWTNNGKTELNYKNTEPVLDSDGSYFMYSKLRVEKKNWVERNSYSCSVVHEGLHNHHTTKSFSRTPGK light: QIVLTQSPAIMSASPGEKVTMTCSASSGVNFMHWYQQKSGTSPKRWIFDTSKLASGVPARFSGSGSGTSYSLTISSMEAEDAATYYCQQWSFNPPTFGGGTKLEIKRADAAPTVSIFPPSSEQLTSGGASVVCFLNNFYPKDINVKWKIDGSERQNGVLNSWTDQDSKDSTYSMSSTLTLTKDEYERHNSYTCEATHKTSTSPIVKSFNRNEC MWELEKDVYVVEVDWTPDAPGETVNLTCDTPEEDDITWTSDQRHGVIGSGKTLTITVKEFLDAGQYTCHKGGETLSHSHLLLHKKENGIWSTEILKNFKNKTFLKCEAPNYSGRFTCSWLVQRNMDLKFNIKSSSSSPDSRAVTCGMASLSAEKVTLDQRDYEKYSVSCQEDVTCPTAEETLPIELALEARQQNKYENYSTSFFIRDIIKPDPPKNLQMKPLKNSQVEVSWEYPDSWSTPHSYFSLKFFVRIQRKKEKMKETEEGCNQKGAFLVEKTSTEVQCKGGNVCVQAQDRYYNSSCSKWACVPCRVRSGGGGSGGGGSGGGGSRVIPVSGPARCLSQSRNLLKTTDDMVKTAREKLKHYSCTAEDIDHEDITRDQTSTLKTCLPLELHKNESCLATRETSSTTRGSCLPPQKTSLMMTLCLGSIYEDLKMYQTEFQAINAALQNHNHQQIILDKGMLVAIDELMQSLNHNGETLRQKPPVGEADPYRVKMKLCILLHAFSTRVVTINRVMGYLSSAGGGGSGGGGSEPRGPTIKPCPPCKCPAPNLLGGPSVFIFPPKIKDVLMISLSPIVTCVVVAVSEDDPDVQISWFVNNVEVHTAQTQTHREDYGSTLRVVSALPIQHQDWMSGKEFKCKVNNKDLPAPIERTISKPKGSVRAPQVYVLPPPEEEMTKKQVTLSCAVTDFMPEDIYVEWTNNGKTELNYKNTEPVLDSDGSYFMVSKLRVEKKNWVERNSYSCSVVHEGLHNHHTTKSFSRTPGK |
